Publication PMC11820146

Target: growth hormone receptor (GHR) (UniProt P10912)
Sequence of UniProt P10912 (P10912 19-638): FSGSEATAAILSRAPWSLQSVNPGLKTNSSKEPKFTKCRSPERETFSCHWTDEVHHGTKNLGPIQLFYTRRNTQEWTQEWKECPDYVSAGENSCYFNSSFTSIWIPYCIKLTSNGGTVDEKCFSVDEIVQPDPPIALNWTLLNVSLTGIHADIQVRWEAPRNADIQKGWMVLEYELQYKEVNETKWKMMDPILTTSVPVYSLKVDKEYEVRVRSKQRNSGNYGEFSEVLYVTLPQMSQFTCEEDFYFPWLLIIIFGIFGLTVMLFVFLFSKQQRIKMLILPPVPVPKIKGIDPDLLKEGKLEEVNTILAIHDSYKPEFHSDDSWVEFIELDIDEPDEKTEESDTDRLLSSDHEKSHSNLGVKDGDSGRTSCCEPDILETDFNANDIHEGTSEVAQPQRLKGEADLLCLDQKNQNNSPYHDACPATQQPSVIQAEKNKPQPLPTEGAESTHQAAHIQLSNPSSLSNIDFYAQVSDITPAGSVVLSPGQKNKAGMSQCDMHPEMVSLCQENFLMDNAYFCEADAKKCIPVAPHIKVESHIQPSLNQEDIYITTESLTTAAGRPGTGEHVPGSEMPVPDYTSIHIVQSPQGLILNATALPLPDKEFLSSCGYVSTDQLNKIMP

| Substance | bioactivity relative to the PEG-rhGH reference, reporter gene assay (luciferase, HepG2/IGF-1 cells) |
| --- | --- |
| PEG-rhGH isomer P1 (PEGylated recombinant human growth hormone, modified at the N-terminus) (from UniProt P01241 27-217) (ligand) | 71.1% |
| PEG-rhGH isomer P2 (PEGylated recombinant human growth hormone, modified at K140) (from UniProt P01241 27-217) (ligand) | 163% |
| PEG-rhGH isomer P3 (PEGylated recombinant human growth hormone, modified at K145) (from UniProt P01241 27-217) (ligand) | 143% |
| PEG-rhGH isomer P4 (PEGylated recombinant human growth hormone, modified at K38) (from UniProt P01241 27-217) (ligand) | 29% |
| PEG-rhGH isomer P5 (PEGylated recombinant human growth hormone, modified at K158) (from UniProt P01241 27-217) (ligand) | 107% |
